Our source for the Kd, koff and kon values is paper PMC6722581.

For assay [1], the target named is head domain of measles virus hemagglutinin, Edmonston vaccine strain (measles virus, Edmonston strain) (UniProt P08362). In words: SPR.
Assay [2] deals with head domain of measles virus hemagglutinin, IC-B wild-type strain (measles virus, IC-B strain) (UniProt Q786F2). Briefly: SPR.
Chain of UniProt Q786F2 (Q786F2 149-617): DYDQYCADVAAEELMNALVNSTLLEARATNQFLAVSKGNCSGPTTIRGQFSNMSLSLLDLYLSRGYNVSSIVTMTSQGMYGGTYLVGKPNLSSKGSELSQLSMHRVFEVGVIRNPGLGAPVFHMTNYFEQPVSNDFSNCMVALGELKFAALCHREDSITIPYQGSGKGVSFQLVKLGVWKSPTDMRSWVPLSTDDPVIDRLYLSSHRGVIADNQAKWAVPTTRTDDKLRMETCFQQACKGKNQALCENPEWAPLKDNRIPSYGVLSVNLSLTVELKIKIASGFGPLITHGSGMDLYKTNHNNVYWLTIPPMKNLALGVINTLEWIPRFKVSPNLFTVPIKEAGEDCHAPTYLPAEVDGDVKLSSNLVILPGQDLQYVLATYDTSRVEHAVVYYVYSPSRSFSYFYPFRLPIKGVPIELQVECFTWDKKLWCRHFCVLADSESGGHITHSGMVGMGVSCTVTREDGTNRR

Chain of UniProt P08362 (P08362 149-617): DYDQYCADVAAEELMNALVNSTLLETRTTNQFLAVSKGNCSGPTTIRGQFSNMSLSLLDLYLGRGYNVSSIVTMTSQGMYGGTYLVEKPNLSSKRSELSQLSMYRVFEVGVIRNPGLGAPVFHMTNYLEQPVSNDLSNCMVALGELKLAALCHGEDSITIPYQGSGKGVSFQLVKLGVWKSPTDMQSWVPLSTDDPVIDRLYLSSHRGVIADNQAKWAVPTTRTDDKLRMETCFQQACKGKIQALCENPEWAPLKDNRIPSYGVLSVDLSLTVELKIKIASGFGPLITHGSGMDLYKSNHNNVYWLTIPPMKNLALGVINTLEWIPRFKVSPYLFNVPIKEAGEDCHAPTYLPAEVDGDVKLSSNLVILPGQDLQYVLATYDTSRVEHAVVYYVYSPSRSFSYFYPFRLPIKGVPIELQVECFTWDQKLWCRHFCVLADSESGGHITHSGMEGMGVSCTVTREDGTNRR

As for “soluble human SLAM, chimeric protein of a human V-set with a mouse C2 domain (domain or fragment)”, in assay [1], the Kd turned out to be 60.8 nM, the off-rate constant (koff) stood at 0.00291 s⁻¹ and the kon was 47900 M⁻¹ s⁻¹. In assay [2], this substance registered an equilibrium dissociation constant (Kd) of 448 nM, an off-rate constant (koff) of 0.00637 s⁻¹ and a kon of 14100 M⁻¹ s⁻¹.

The Kd is the constant that tells how readily two partners part at equilibrium. Broadly, the koff is the first-order rate constant of dissociation. A word on the kon: it is the second-order rate constant of association.
